This is an account of results in article PMC2377097.

This experiment concerns the target Unc45b^Flag, bacteria expressed and purified (mouse) (UniProt Q8CGY6). The experiment in a line: pull-down; apparent; skeletal MD::GFP synthesized in the coupled assay, incubated with 0-2000 nM Unc45b^Flag 1 hr at 25°C, then anti-Flag beads 1 hr at 25°C; silver stain and autoradiography.

Unc45b^Flag, bacteria expressed and purified (mouse), sequence (Q8CGY6 whole entry): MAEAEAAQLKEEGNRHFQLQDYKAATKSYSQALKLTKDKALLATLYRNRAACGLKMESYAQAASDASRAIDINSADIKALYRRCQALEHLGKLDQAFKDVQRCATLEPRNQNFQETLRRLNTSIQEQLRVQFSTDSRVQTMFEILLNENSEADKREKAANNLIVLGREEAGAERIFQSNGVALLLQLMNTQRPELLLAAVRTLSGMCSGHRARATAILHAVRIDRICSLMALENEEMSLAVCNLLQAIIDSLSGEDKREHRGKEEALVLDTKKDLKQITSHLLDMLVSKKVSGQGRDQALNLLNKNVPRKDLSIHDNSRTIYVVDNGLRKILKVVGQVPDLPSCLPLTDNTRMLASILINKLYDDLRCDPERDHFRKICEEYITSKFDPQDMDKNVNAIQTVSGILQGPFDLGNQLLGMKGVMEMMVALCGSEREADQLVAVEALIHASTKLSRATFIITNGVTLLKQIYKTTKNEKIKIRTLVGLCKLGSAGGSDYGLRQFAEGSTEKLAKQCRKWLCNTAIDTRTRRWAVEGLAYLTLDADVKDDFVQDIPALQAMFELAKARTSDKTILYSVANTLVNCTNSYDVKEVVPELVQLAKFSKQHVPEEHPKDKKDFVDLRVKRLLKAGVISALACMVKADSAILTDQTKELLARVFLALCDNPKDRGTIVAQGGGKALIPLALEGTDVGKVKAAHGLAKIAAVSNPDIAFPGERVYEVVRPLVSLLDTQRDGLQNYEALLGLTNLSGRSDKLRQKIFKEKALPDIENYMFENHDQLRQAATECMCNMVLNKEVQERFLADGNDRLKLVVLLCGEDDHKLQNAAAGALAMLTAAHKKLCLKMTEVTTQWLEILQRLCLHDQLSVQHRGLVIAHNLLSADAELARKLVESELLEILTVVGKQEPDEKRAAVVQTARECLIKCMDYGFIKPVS

In the case of “skeletal muscle MD::GFP chimera (Sk795GFP) (domain or fragment)”, the Kd was 510 nM.
